The target in test [1] is T1, human TNFR1, soluble recombinant protein (human, UniProt P19438 22-211, limits assumed, biotinylated in the BIAcore assays (coupling via primary amines)).
T1 construct: also called biotinylated TNFR1; human recombinant E. coli-expressed human TNFR1
T1 sequence (looked up): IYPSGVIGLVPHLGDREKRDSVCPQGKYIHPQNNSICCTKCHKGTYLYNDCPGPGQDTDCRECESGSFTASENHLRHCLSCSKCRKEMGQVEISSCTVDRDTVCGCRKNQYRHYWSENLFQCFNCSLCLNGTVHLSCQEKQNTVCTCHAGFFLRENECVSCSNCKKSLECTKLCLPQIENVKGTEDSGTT
Put plainly: phage ELISA, plate coated with 1 nM TNFR1, anti-M13-HRP; trypsin 100 µg/ml 1 h room temp; phage input 1.41E+09.

Test [2] addresses T1, human TNFR1, soluble recombinant protein. The experiment in a line: phage ELISA, plate coated with 1 nM TNFR1, anti-M13-HRP; trypsin 0 µg/ml; phage input 2.82E+09. Background: In an ELISA, binding on a coated surface is turned into a signal by an enzyme label.
The target is the same in test [3]. The experiment in a line: phage ELISA, plate coated with 1 nM TNFR1, anti-M13-HRP; trypsin 1 mg/ml 1 h room temp; phage input 1.41E+09.
The target is the same in test [4]. Put plainly: phage ELISA, plate coated with 1 nM TNFR1, anti-M13-HRP; trypsin 100 µg/ml 1 h room temp; phage input 3.52E+08.
For test [5] the target is unchanged. Put plainly: phage ELISA, plate coated with 1 nM TNFR1, anti-M13-HRP; trypsin 10 µg/ml 1 h room temp; phage input 4.51E+10.
Test [6] shares this target. The experiment in a line: phage ELISA, plate coated with 1 nM TNFR1, anti-M13-HRP; trypsin 1 mg/ml 1 h room temp; phage input 5.64E+09.
Test [7] has the same target. The experiment in a line: phage ELISA, plate coated with 1 nM TNFR1, anti-M13-HRP; trypsin 10 µg/ml 1 h room temp; phage input 7.05E+08.
Test [8] shares this target. Put plainly: phage ELISA, plate coated with 1 nM TNFR1, anti-M13-HRP; trypsin 0 µg/ml; phage input 2.26E+10.
Test [9] shares this target. Put plainly: phage ELISA, plate coated with 1 nM TNFR1, anti-M13-HRP; trypsin 10 µg/ml 1 h room temp; phage input 1.41E+09.
Test [10] has the same target. The experiment in a line: phage ELISA, plate coated with 1 nM TNFR1, anti-M13-HRP; trypsin 0 µg/ml; phage input 7.05E+08.
Test [11] has the same target. The experiment in a line: phage ELISA, plate coated with 1 nM TNFR1, anti-M13-HRP; trypsin 1 mg/ml 1 h room temp; phage input 3.52E+08.
For test [12] the target is unchanged. Put plainly: phage ELISA, plate coated with 1 nM TNFR1, anti-M13-HRP; trypsin 0 µg/ml; phage input 1.13E+10.
Test [13] has the same target. Put plainly: phage ELISA, plate coated with 1 nM TNFR1, anti-M13-HRP; trypsin 10 µg/ml 1 h room temp; phage input 1.13E+10.
For test [14] the target is unchanged. Put plainly: phage ELISA, plate coated with 1 nM TNFR1, anti-M13-HRP; trypsin 1 mg/ml 1 h room temp; phage input 2.26E+10.
The target is the same in test [15]. The experiment in a line: phage ELISA, plate coated with 1 nM TNFR1, anti-M13-HRP; trypsin 100 µg/ml 1 h room temp; phage input 7.05E+08.
For test [16] the target is unchanged. Put plainly: phage ELISA, plate coated with 1 nM TNFR1, anti-M13-HRP; trypsin 1 mg/ml 1 h room temp; phage input 7.05E+08.
The target is the same in test [17]. The experiment in a line: phage ELISA, plate coated with 1 nM TNFR1, anti-M13-HRP; trypsin 100 µg/ml 1 h room temp; phage input 5.64E+09.
Test [18] shares this target. The experiment in a line: phage ELISA, plate coated with 1 nM TNFR1, anti-M13-HRP; trypsin 100 µg/ml 1 h room temp; phage input 1.13E+10.
Test [19] has the same target. Put plainly: phage ELISA, plate coated with 1 nM TNFR1, anti-M13-HRP; trypsin 100 µg/ml 1 h room temp; phage input 4.51E+10.
The target is the same in test [20]. The experiment in a line: phage ELISA, plate coated with 1 nM TNFR1, anti-M13-HRP; trypsin 100 µg/ml 1 h room temp; phage input 2.26E+10.

Results on one substance are retold here after patent US20100260763A1 (DOMANTIS, published 2010).

As to DOM1h-131 displayed on phage, the phage ELISA read-out in test [1] stood at 0.115; in test [2], 0.946; in test [3], 0.089; in test [4], 0.084; in test [5], 0.784; in test [6], 0.133. For the same substance, the phage ELISA read-out amounted to 0.286 in test [7]; 0.944 in [8]; 0.409 in test [9]; 0.705 in test [10]; 0.08 in test [11]; 0.949 in [12]. The phage ELISA read-out in test [13] amounted to 0.86; in test [14] it was 0.229; in test [15], 0.084; in test [16], 0.084; in test [17], 0.196; in [18], 0.284. Besides, the phage ELISA read-out was found to be 0.418 in [19] and 0.377 in test [20].
